Experimental data from publication PMC3257273, “Crystal Structure of a Human Single Domain Antibody Dimer Formed through VH-VH Non-Covalent Interactions” (PLoS ONE, 2012).

Biological target: T1, human HER2 (ErbB2)/Fc chimera (Homo sapiens, UniProt P04626)
T1 construct: human epidermal growth factor receptor-2 (HER2, ErbB2), the part present in the bought HER2 (ErbB2)/Fc chimera; also called HER2/Fc; human epidermal growth factor receptor-2; source: bought: R&D Systems
Assay: SPR; Biacore 3000; HER2 amine-coupled on CM5 chip (ovalbumin as reference surface); sdAb injected at 5 to 600 nM, 40 uL/min; room temperature; HBS-EP (10 mM HEPES pH 7.4, 150 mM NaCl, 3 mM EDTA, 0.005% P20); 1:1 Langmuir model
Conditions: both partners purified

B1: Gr3 (VHH)
VHH: QVQLVESGGGLIKPGGSLRLSCAASGFTVSYESMGWVRQAPGKGLEWVSAISSSGGSTYYADSVKGRFTISRDNSKNTVYLQMNSLRAEDTAVYYCVTPERQCKQSTCYARPRYWGQGTMVTVSS
notes: differs from Gr6 only in CDR1 and CDR3; selected from a synthetic human VH phage display library; Single-domain antibody from a human VH, not a camelid VHH; the vector may add further C-terminal residues besides the His tag; also called anti-HER2 sdAb Gr3; human VH single-domain antibody; source: E. coli periplasm, purified (IMAC, Ni-NTA / HiTrap chelating HP)
Kd: 68 nM
koff: 0.02 s⁻¹
kon: 290000 M⁻¹ s⁻¹
